Type in all cases: in vitro ADME
One data set relates to Chymotrypsin. Description: Enzymatic stability: 0.5 U/mL chymotrypsin digest. Particulars: for % Remaining Following 0.5 U/mL Chymotrypsin Digest: replicate columns; for % Remaining, Control: Control tube (1 mM HCl, no enzyme). The procedure: (§1) Compounds, supplied as lyophilized powders, are resuspended in 10 mM phosphate buffer pH 7.4 and then submitted for concentration determination by HPLC. The phosphate buffer is used to create a solution with a pH that is optimum for activity of each particular gut enzyme. Aliquots of the compound thus prepared are transferred to 1.7 mL microcentrifuge tubes and shaken in a 37° C. water bath for 15 minutes to allow compounds to equilibrate to temperature. After 15 minutes, 2 μL of the appropriate concentrated gut enzyme is added to each tube to achieve the final concentration desired. Chymotrypsin and trypsin are resuspended in 1 mM HCl. Also, as a control, compounds are treated with 2 μL of 1 mM HCl. Immediately following additions, 100 μL of sample is removed from the control tube and quenched with either 25 μL of chymotrypsin/trypsin quenching solution (1:11% TFA:Isopropanol). This sample will serve as T=0 min. A sampling procedure is repeated at various time intervals depending on the gut enzyme used. Chymotrypsin has 15, 30 and 60 minute samples. Trypsin has 30, 60, 120 and 180 minute samples. Once all points have been acquired, a final sample is removed from the control tube to make sure that observed degradation is not temperature or buffer related. The chymotrypsin and trypsin samples may be collected directly into HPLC vials. RP-HPLC (acetonitrile gradient) is used to determine AUC for each sample and % degradation is calculated based from the T=0 min control. The results are provided below in Tables 1 to 4.

The next data set deals with Trypsin. The data set is described as follows: Enzymatic stability: 1 U/mL trypsin digest. Particulars: for % Remaining following 1 U/mL Trypsin Digest: Non-Formulated, replicate columns; for % Remaining, Control: Control tube (1 mM HCl, no enzyme). The procedure: as §1
Data set [1] is described as follows: Enzymatic stability: 0.5 U/mL chymotrypsin digest. Particulars: chymotrypsin 0.5 U/mL, pH 7.4, Non-Formulated, replicate columns, read-out: % Remaining Following 0.5 U/mL Chymotrypsin Digest. The procedure:
as §1

The nature of data set [2]: Enzymatic stability: 1 U/mL trypsin digest. The conditions noted are these: trypsin 1 U/mL, pH 7.4, Non-Formulated, replicate columns, read-out: % Remaining following 1 U/mL Trypsin Digest. The procedure: as §1

Several values for one entry are separate records, joined by “and”; a condition that tells them apart may be missing. Identical values can stand only once.

Regarding `CC(C)C[C@H](NC(=O)[C@H](CCCCN)NC(=O)CNC(=O)[C@H](CC(C)C)NC(=O)[C@@H](NC(=O)[C@@H]1CSSC[C@H](N)C(=O)N[C@@H](CO)C(=O)N[C@@H](CC(N)=O)C(=O)N[C@@H](CC(C)C)C(=O)N[C@@H](CO)C(=O)N[C@@H]([C@@H](C)O)C(=O)N1)C(C)C)C(=O)N[C@@H](CO)C(=O)N[C@@H](CCC(N)=O)C(=O)N[C@@H](CCC(=O)O)C(=O)N[C@@H](CC(C)C)C(=O)N[C@@H](Cc1c[nH]cn1)C(=O)N[C@@H](CCCCN)C(=O)N[C@@H](CC(C)C)C(=O)N[C@@H](CCC(N)=O)C(=O)N[C@H](C(=O)N[C@@H](Cc1ccc(O)cc1)C(=O)N1CCC[C@H]1C(=O)N[C@@H](CCCNC(=N)N)C(=O)N[C@H](C(=O)N[C@@H](CC(N)=O)C(=O)N[C@H](C(=O)NCC(=O)N[C@@H](CO)C(=O)NCC(=O)N[C@H](C(=O)N1CCC[C@H]1C(N)=O)[C@@H](C)O)[C@@H](C)O)[C@@H](C)O)[C@@H](C)O` [Salmon Calcitonin], the “% Remaining Following 0.5 U/mL Chymotrypsin Digest” value in the data set with Chymotrypsin (Buffered Formulation, 15 min) was 59% and 91% and 92%; in the data set with Chymotrypsin (Buffered Formulation, 30 min) it was 54% and 86% and 87%; with Chymotrypsin (Buffered Formulation, 60 min), 55% and 82% and 85%; in the data set on Chymotrypsin (Non-Formulated, 15 min) it was 62% and 35%; with Chymotrypsin (Non-Formulated, 30 min) it was 30% and 26% and 40% and 13% and 42%; in the data set on Chymotrypsin (Non-Formulated, 60 min), 1.6% and 5% and 12% and 1%. Moreover, the “% Remaining, Control” value with Chymotrypsin (Buffered Formulation, 60 min) is 102% and 98% and 103%. The “% Remaining following 1 U/mL Trypsin Digest” value was 80% and 50% with Trypsin (30 min); 66% and 28% and 69% and 76% in the data set on Trypsin (60 min); 44% and 7% and 46% and 59% in the data set on Trypsin (120 min); 2% and 31% and 46% in the data set with Trypsin (180 min).
Take `COCCOCCOCCOCCOCCOCCOCCOCCCCCCCC(=O)NCCCC[C@H](NC(=O)CNC(=O)[C@H](CC(C)C)NC(=O)[C@@H](NC(=O)[C@@H]1CSSC[C@H](N)C(=O)N[C@@H](CO)C(=O)N[C@@H](CC(N)=O)C(=O)N[C@@H](CC(C)C)C(=O)N[C@@H](CO)C(=O)N[C@@H]([C@@H](C)O)C(=O)N1)C(C)C)C(=O)N[C@@H](CC(C)C)C(=O)N[C@@H](CO)C(=O)N[C@@H](CCC(N)=O)C(=O)N[C@@H](CCC(=O)O)C(=O)N[C@@H](CC(C)C)C(=O)N[C@@H](Cc1c[nH]cn1)C(=O)N[C@@H](CCCCNC(=O)CCCCCCCOCCOCCOCCOCCOCCOCCOCCOC)C(=O)N[C@@H](CC(C)C)C(=O)N[C@@H](CCC(N)=O)C(=O)N[C@H](C(=O)N[C@@H](Cc1ccc(O)cc1)C(=O)N1CCC[C@H]1C(=O)N[C@@H](CCCNC(=N)N)C(=O)N[C@H](C(=O)N[C@@H](CC(N)=O)C(=O)N[C@H](C(=O)NCC(=O)N[C@@H](CO)C(=O)NCC(=O)N[C@H](C(=O)N1CCC[C@H]1C(N)=O)[C@@H](C)O)[C@@H](C)O)[C@@H](C)O)[C@@H](C)O`: in data set [1] (15 min), the remaining at 0.25 h turned out to be 63%. Moreover, the values for the remaining at 0.5 h in data set [1] (30 min) and in data set [2] (30 min) were 34% and 87%, respectively. In addition, the “% Remaining Following 0.5 U/mL Chymotrypsin Digest” value in the data set on Chymotrypsin (Buffered Formulation, 15 min) is 88% (2×) and 86%; in the data set with Chymotrypsin (Buffered Formulation, 30 min), 73% and 88% and 86%; with Chymotrypsin (Buffered Formulation, 60 min), 61% and 69% and 84%. The “% Remaining, Control” value with Chymotrypsin (Buffered Formulation, 60 min) was 116% and 104% and 101%; with Chymotrypsin (Non-Formulated, 60 min), 104% and 88% and 97% and 103%; in the data set with Trypsin (60 min) it was 103% and 100%; with Trypsin (120 min) it was 106% and 105% and 99%; in the data set on Trypsin (180 min), 104% and 99%. The remaining at 1 h in data set [2] (60 min) worked out at 78%. For the same compound, the remaining at 2 h in data set [2] (120 min) amounted to 72%. The remaining at 3 h in data set [2] (180 min) came out at 81%.

These data come from patent publication US7713932B2, “Calcitonin drug-oligomer conjugates, and uses thereof” (Biocon Limited, priority 2001, dated 2010).
